Experimental findings from patent publication US11608371 (PETMEDIX, dated 2023) are described below.

Assay [1] addresses Canine FcRn-B2M recombinant protein (Immunitrack) (canine). Nature of the assay: SPR (Biacore 8K), canine FcRn-B2M amine-coupled on CM5 chip, running buffer pH 6, steady state affinity. (Surface plasmon resonance follows binding to a sensor surface in real time, without labels.)
Assay [2] has as its target T1, Human nerve growth factor (NGF) (human, UniProt P01138 122-241). Nature of the assay: cell-based or functional assay.
Assay [3] has as its target T2, Rat nerve growth factor (NGF) (rat, UniProt P25427 122-241).
T2 construct: Bought reagent; also called rat NGF
Description: SPR (Biacore 8K), PetML119 captured on Protein A chip, rat NGF as analyte, kinetics affinity.
Description: (§1) Briefly, Protein A Sensor Chip (Cytiva) was docked into Biacore 8K, equilibrated for 30' at RT and then Running Buffer (10 mM HEPES pH7.4 150 mM NaCl 3 mM EDTA and 0.005% Tween20) was applied to the SPR chip surface.
(§2) These have been immobilised using 90 sec association at 10 uL/min as capturing step, followed by injection of running buffer to remove any unbound product.
(§3) Kinetics were assessed using multi-cycle kinetics with capture step method (30 sec association-120 sec dissociation) followed by regeneration step (0.1M Glycine pH2.2 contact time 60 sec FR 30 uL/min).

The target of assay [4] is T1, Human nerve growth factor (NGF). Nature of the assay: SPR (Biacore 8K), PetML119 captured on Protein A chip, human NGF as analyte, kinetics affinity.
Description: as §1, §2, §3
Assay [5] concerns the target T3, Murine FcRn-B2M recombinant protein (Immunitrack) (murine, UniProt Q61559 22-297; P01887 21-119, limits assumed).
T3 construct: Bought reagent, amine-coupled to a CM5 chip; also called murine neonatal receptor
T3 sequence (looked up): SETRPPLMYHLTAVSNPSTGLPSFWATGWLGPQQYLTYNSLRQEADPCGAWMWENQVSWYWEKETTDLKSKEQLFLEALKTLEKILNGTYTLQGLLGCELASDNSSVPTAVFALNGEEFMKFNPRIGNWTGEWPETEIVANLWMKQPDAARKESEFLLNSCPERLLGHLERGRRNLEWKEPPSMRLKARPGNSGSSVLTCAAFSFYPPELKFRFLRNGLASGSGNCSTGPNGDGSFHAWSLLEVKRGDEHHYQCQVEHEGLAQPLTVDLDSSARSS
T3 sequence (b2m, looked up): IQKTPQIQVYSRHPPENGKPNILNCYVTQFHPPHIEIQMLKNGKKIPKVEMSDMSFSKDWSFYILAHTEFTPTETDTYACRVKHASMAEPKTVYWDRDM
Nature of the assay: SPR (Biacore 8K), murine FcRn-B2M amine-coupled on CM5 chip, running buffer pH 6, steady state affinity.
Description: (§4) Briefly, CM5 Sensor Chip (Cytiva) was docked into Biacore 8K, equilibrated for 30' at RT and then Running Buffer (10 mM HEPES pH6 150 mM NaCl 3 mM EDTA and 0.005% Tween20) was applied to the SPR chip surface.
(§5) Canine and murine FcRn-B2M recombinant protein (Immunitrack, ITF12-ITF08) was diluted into 10 mM acetate buffer pH4.5 at 4 nM (1:2000 dilution from stock) and immobilised using standard amine coupling reaction.

Assay [6] concerns the target T3, Murine FcRn-B2M recombinant protein …. Described as above. The source holds these as a separate data set.
Description: as §4, §5
Assay [7] has the same target. Description: SPR (Biacore 8K), murine FcRn-B2M amine-coupled on CM5, pH 6, multi-cycle kinetics; reference not named, taken as PetML119 (wild type Fc).
Description: as §4, §5
Assay [8] addresses T1, Human nerve growth factor (NGF). Nature of the assay: SPR (Biacore 8K), human NGF as analyte on Bedinvetmab, kinetics affinity, 1:1 binding fit.

Substitutions are numbered along the chain they refer to. Like-named read-outs stand apart in the source and are kept apart here.

T1 sequence (P01138 122-241 limits assumed): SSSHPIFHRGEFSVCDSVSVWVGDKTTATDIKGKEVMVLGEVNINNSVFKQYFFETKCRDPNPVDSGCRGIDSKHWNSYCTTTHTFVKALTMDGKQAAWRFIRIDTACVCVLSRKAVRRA
T2 sequence (P25427 122-241 limits assumed): as the sequence (P01138 122-241 limits assumed) above, with S3T, I6V, R9M, M37T, D60A, D65E, M92T, G94D, V117A, A120G counted along it

Broadly, the Kd is the free concentration of one partner at which half of the binding sites on the other are occupied at equilibrium, for simple one-to-one binding. With “PetML122 (canine p75NTR ECD - canine Fc YTE protein fusion) (Fc fusion)”, the Kd in assay [1] came out at 400 nM.

Regarding “PetML119 (canine p75NTR ECD - canine IgGB wt Fc protein fusion) (Fc fusion)”, the equilibrium dissociation constant (Kd) in assay [1] was 6000 nM.

B1: PetML119 (canine p75NTR ECD - canine IgGB wt Fc protein fusion) (Fc fusion)
chain: KEACPTGLYTHSGECCKACNLGEGVAQPCGANQTVCEPCLDSVTFSDVVSATEPCKPCTECVGLQSMSAPCVEADDAVCRCAYGYYQDETTGRCEACRVCEAGSGLVFSCQDRQNTVCEECPDGTYSDEANHVDPCLPCTVCEDTERQLRECTRWADAECEEIPGGGGRENGRVPRPPDCPKCPAPEMLGGPSVFIFPPKPKDTLLIARTPEVTCVVVDLDPEDPEVQISWFVDGKQMQTAKTQPREEQFNGTYRVVSVLPIGHQDWLKGKQFTCKVNNKALPSPIERTISKARGQAHQPSVYVLPPSREELSKNTVSLTCLIKDFFPPDIDVEWQSNGQQEPESKYRTTPPQLDEDGSYFLYSKLSVDKSRWQRGDTFICAVMHEALHNHYTQKSLSHSPGK
notes: also called PetMI119; Fc-Bwt
Turning to B1, the “IC50 (nM), inhibition of TF-1 cell proliferation” value (from here on “IC50 (nM), inhibition”) in assay [2] is 15.2 nM. Moreover, the dissociation constant Kd in assay [3] is 0.12 nM; in assay [4], 0.12 nM; in assay [5] it was 2000 nM.

B2: PetML122 (canine p75NTR ECD - canine Fc YTE protein fusion) (Fc fusion)
chain: B1 chain with L206Y, A208T, T210E
notes: Same construct as PetML119, but with the YTE triple mutation in the Fc; also called PetMI122; Fc-B-YTE
As for B2, the “IC50 (nM), inhibition” value in assay [2] came out at 5.91 nM. The Kd in assay [6] came out at 90 nM. For the same molecule, in assay [7], the “fold increase in binding affinity” value amounted to 10 fold.

B3: Bedinvetmab (antibody, V domains shown)
VH: EVQLVESGGDLVKPGGSLRLSCVASGFTFSSHGMHWVRQSPGKGLQWVAVINSGGSSTYYTDAVKGRFTISRDNAKNTVYLQMNSLRAEDTAMYYCAKESVGGWEQLVGPHFDYWGQGTLVIVSS
VL: QSVLTQPTSVSGSLGQRVTISCSGSTNNIGILGASWYQLFPGKAPKLLVYGNGNRPSGVPDRFSGADSGDSVTLTITGLQAEDEADYYCQSFDTTLGAHVFGGGTHLTVL
With B3, the “IC50 (nM), inhibition” value in assay [2] is 1.65 nM. In addition, binding in assay [8] was put at a Kd of 0.073 nM.
